# Measurements: article PMC5943153 (Molecular microbiology, 2018)
# T1: T25-HP1492 (Nfu) (Helicobacter pylori strain 26695, UniProt O26025 2-89)
# T1 sequence (looked up): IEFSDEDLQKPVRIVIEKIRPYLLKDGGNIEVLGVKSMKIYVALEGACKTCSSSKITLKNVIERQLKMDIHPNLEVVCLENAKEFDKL
# T2: T25-HP0221 (NifU) (Helicobacter pylori strain 26695, UniProt O25009 2-326)
# T2 sequence (looked up): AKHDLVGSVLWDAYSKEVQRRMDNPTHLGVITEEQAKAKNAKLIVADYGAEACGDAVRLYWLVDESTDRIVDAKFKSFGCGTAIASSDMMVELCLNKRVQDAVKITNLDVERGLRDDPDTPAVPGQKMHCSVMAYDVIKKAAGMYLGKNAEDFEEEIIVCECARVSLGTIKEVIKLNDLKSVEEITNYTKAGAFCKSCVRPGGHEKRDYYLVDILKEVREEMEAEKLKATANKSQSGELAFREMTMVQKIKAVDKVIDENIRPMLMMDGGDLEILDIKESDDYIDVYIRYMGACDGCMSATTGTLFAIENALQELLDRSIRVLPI
# T3: HP0221-T25 (NifU) (Helicobacter pylori strain 26695, UniProt O25009 2-326)
# T3 sequence (looked up): T2 sequence (looked up)
# B1: T18-HP0285 (natural protein, Helicobacter pylori strain 26695, UniProt P56130 2-418, looked up)
# chain: KKVYFKTFGCRTNLFDTQVMSENLKDFSTTLEEQEADIIIINSCTVTNGADSAVRSYAKKMARLDKEVLFTGCGVKTQGKELFEKGFLKGVFGHDNKEKINALLQEKKRFFIDDNLENKHLDTTMVSEFVGKTRAFIKIQEGCDFDCNYCIIPSVRGRARSFEERKILEQVGLLCSKGVQEVVLTGTNVGSYGKDRGSNIARLIKKLSQIAGLKRIRIGSLEPNQINDEFLELLEEDFLEKHLHIALQHSHDLMLERMNRRNRTKSDRELLETIASKNFAIGTDFIVGHPGESGSVFEKAFKNLESLPLTHIHPFIYSKRKDTPSSLMTDSVSLEDSKKRLNAIKDLIFHKNKAFRQLQLKLNTPLKALVEVQKDGEFKALDQFFNPIKIKSDKPLRASFLEIKEYEIKERENHAVF
# B2: T18-HP1222 (natural protein, Helicobacter pylori strain 26695, UniProt O25820 2-948, looked up)
# chain: RVEENYHAFFTEASGFLNERIFKDYLRRLAYGIDASCYRYIPKIVAWVKNEEEVQKLCVLAKKHGVSLTFRAAGSSLSGQAICDGVLVMVTHFFKDAQILDNAQSIQLSCGVIGSNANALLKPYHKKIGPDPSTINTAMIGGIVANNASGMCCGVEQNSYKTLKSLRVILADGTLLDTANQESVESFKNAHKDLIEGVLNLRKEILEDKELHALIKKKYEIKNTTGYSLNALIDFEDPIEIISHLFIGSEGTLGFISSVELECVKDYAYKTCALLFYENLERCAKAAQILAALKAKQPEMISSAELMDYACLKSVKGLEGMPSVVLEIKEPNACLLIQSESDDPLILENSMQTILNALSAIPVVLDSQISSDPSIYQSWWKIRKGIFPIAASKRKSQSSVIIEDICFSQEDFVEGAKAIEGLLKKHGFKDNGIIFGHALSGNLHFVVTPILENEAERKAFENLVSEMFLMVSKSSGSIKAEHGTGRMVAPFVEMEWGEKAYKIHKQIKELFDPNGILNPDVIITNDKEIHTKNLKSIYPIEEHLDMCMECGFCERICPSKDLSLTPRQRIVIHREVEHLKERVSHGHHEDQVLLDELLKESEYLAHATCAVCHMCSTLCPLEIDTGKIALNYYQKNPKGEKIASKILNHMQTTTSMARFSLKSARLVQNLIGSHNLVSLTKGIKKFIKPFPKAFYYMPKNNAYPLENKTLKSEEKVIYFSTCINRSFAPSNKMADKRCIQEVFESLCQKAKVSVMYPNGLNALCCGKAFINYTDLTKQNNEKNHAIFLQLSDKGKIPIVLDHSACSTHFFKQMKAYKDLKVYDLSVYIEEVLSPKLKFNPINEDIGLYTMCALKLENKEELLFNLAKKCTLGEIVIHKETGCCGFAGNKGFFTPELNESALNGFQAFYQSYDLKRGFSTSSTCEIGLSEKTRFSWQHIAYLVDACTL
# B3: T18-HP0117 (natural protein, Helicobacter pylori strain 26695, UniProt P56080 2-308, looked up)
# chain: AKENPPIVFGPVLSRRFGKSLGVDLSPSKKQCNYNCIYCELGKAKPIERMEEVIKVETLINAIQNALNNLTTPIDVLTITANGEPTLYPHLLELIQSIKPFLKGVKTLILSNGSLFYEPKVQQALKEFDIVKFSLDAIDLKAFERVDKPYSKDINKILEGILRFSQIYQGQLVAEVLLIKGVNDSANNLKLIAAFLKQINIARVDLSTIDRPSSFKAPKLSEDELLKCSLFFEGLCVSLPKRSITQAKKLISCGIDELLALISRRPLSAEEAPLILDSNAFKHLETLLNHKQITIKKVGSLEFYCAF
# B4: T18-HP0779 (natural protein, Helicobacter pylori strain 26695, UniProt P56418 2-852, looked up)
# chain: KDFLEDYKKSVSERGSEGIPPLPLNAKQVQAVVEILTKDPTNAAFAKELLIHRVSPGVDEGAKVKAEFLAKLSQKKLECVHISALEATTLLGTMLGGYNVEPLIMGLESQDKNIAKESAKALKTTLLVYGSFDKIAAMSKTNALAKEVLESWANAEWFLNKEPLNECIEACVFKIDGETNTDDLSPASDAFTRSDIPLHAKAMLKNRIENYEQRIKAIKTKGVPVAYVGDVVGTGSSRKSATNSIMWHFGKDIPFVPNKRSGGIVIGGVIAPIFFATCEDSGALPIVADVKDLKEGDLIKIYPYKGEITLNDKVVSTFKLEPETLLDEVRASGRIPLIIGRGLTNKARKFLGLGESEAFKKPSAPKSDAKGYTLAQKIVGHACGVKGILPGTYCEPKVTTVGSQDTTGAMTRDEVKELASLKFDAPFVLQSFCHTAAYPKPSDVSLHATLPGFITQRGGVALHPGDGVIHTWLNRMGLPDTLGTGGDSHTRFPLGISFPAGSGLVAFAAVTGTMPLNMPESVLVRFKGEMNPGITLRDLVNAIPYYAIKKGLLTVEKKGKINVFNGRILEIEGLPDIKMEQAFELSDASAERSAAACVVRLNKEPMIEYLKSNIKLIDEMIASGYEDKETLKKRRDAMQAWVDNPVLLEPDSNAQYAAVIEIDVAEITEPILACPNDPDDVATLSEVLADTTGKRPHAIDEVFIGSCMTNIGHFRAFGEIVKNAPPSQARLWVVPPSKMDEQELINEGYYAIFGAAGARTEVPGCSLCMGNQARVRDNAVVFSTSTRNFDNRMGRGAKVYLGSAELGAACALLGRIPTKEEYMNLVSEKLESQKDKIYRYMNFNLMENFRL
# B5: T18-HP0656 (natural protein, Helicobacter pylori strain 26695, UniProt O25370 2-383, looked up)
# chain: ARNVKGYASTLTWTITRNTLNFLWEQGFKMRINREEILDLMKNAPLKELGQRALRVKQRLHPENLTTFIVDRNINYTNICFVDCKFCAFKRTLKEKDAYVLSYEEIDQKIEELLAIGGTQILFQGGVHPQLKIDYYENLVSHIAQKFPTITIHGFSAVEIDYISKISKLSLKEVLERLKNAGLSSIPGAGAEVLSDRVRDVIAPKKLSSDRWIEVHRMAHLCGIKSTATMMFGSVDNEEDVVEHLQRVRDLQDETGGFRAFILWSFQPNNTPLKEEIPSIKKASSNRYLRYLACSRIFLDNIQNIQSSWVTQGSMIGQLALLFGANDLGSVMMEENVVKAAGTSFCMNEAGMIELIEDIGSVAAKRNTAYEILKRYPAKAKV
# B6: T18-HP0625 (natural protein, Helicobacter pylori strain 26695, UniProt O25342 2-359, looked up)
# chain: LENRVKTKQIFIGGVAIGGDAPISTQSMTFSKTADIESTKNQIDRLKLAGADLVRVAVSNEKDALALKELKKVSPLPLIADIHFHYKFALIAAQSVDAIRINPGNIGSKEKIKAVVDACKEKNIPIRIGVNAGSLEKQFDQKYGPTPKGMVESALYNAKLLEDLDFTNFKISLKASDVIRTIEAYRMLRPLVIYPFHLGVTEAGNLFSSSIKSAMALGGLLMEGIGDTMRVSITGELENEIKVARAILRHSGRLKEGINWISCPTCGRIEANLVDMAIKVEKRLSHIKTPLDISVMGCVVNALGEAKHADMAIAFGNRSGLIIKEGKVIHKLAEKDLFETFVIEVENLAKEREKSLKD
# B7: T18-HP0665 (natural protein, Helicobacter pylori strain 26695, UniProt O25376 2-457, looked up)
# chain: QTIDFEKFSQYSKPGPRYTSYPTAVEFNENFNEESLKTAFFNHDNLKNPMPLSLYTHLPFCRSACYFCACSVIYTSLEEKKIRYISYLKKELALLKNAMDTNREVAQFHYGGGTPTFFSPIQLDEITQSIQEVFPNFSKDIEMSCEIDPRHFTKEHMQTLFDRGFNRLSFGVQDFDFEVQKAIHRIQPFEMVQESVKLARDYGIKSINFDLIYGLPNQTKEGFLKTLEWVLKLDPDRLAVFNYAHVPWVKKTMRKIDETLLPSLRDKLEILESLISFLEKANYQMIGMDHFAKSDNELYLALQKAELRRNFQGYTTKKFTQTIGIGVTSIGEGGDYYTQNYKDLHHYEKALDLGHLPVERGVALSQEDVLRKEVIMQMMSNLKLDYSKIEEKFSVDFKAHFKKELEKLKPYEEAGLLSFNSKGFEMTKTGGMLVRNMAMEFDAYLRGGEKHFSKTL
# B8: T18-HP0631 (natural protein, Helicobacter pylori strain 26695, UniProt O25348 2-384, looked up)
# chain: FYDEKKTYQKIEERLDIVRSFNAHNEHKNLQDEFKGAGISRRDLLKWAGMMSTALALPASFAPLTLKAVEVANRLPVIWLHMAECTGCSESLLRSADPTIDSIIFDYINLEYHETIMVASGFQAEKSLHDAIEKHKNNYILMVEGGIPQGTEYFLTQGPNAETGAEECRKAAQYAAAIFAIGTCSSFGGVQAAYPNPSNAQPLHKIIDKPVINVPGCPPSEKNIVGNVLYYLMFGALPKLDAYNRPSWAYGNRIHDLCERRGHFDAGEFVEHFGDENAKRGFCLYKMGCKGPYTFNNCSKLRFNSHTSWPIGAGHGCIGCSEPNFWDTMSPFEEPLANRSIKTAFDGLGADKVADKVGTTLLSATAIGIVAHALLSKAIKNKE
# B9: T18-HP0654 (natural protein, Helicobacter pylori strain 26695, UniProt O25368 2-360, looked up)
# chain: DFLEKVLDNQVTESKELVRLYDYDLYTLGEVADRMRQNMHQKIVYFNVNRHLNPSNICADACKFCAFSAHRKNPNPYEMSLEEILEKVKNSYNKGIKEVHIVSAHNPNYSYEWYLKVFETIKQEMPNLHLKAMTAAEVHFLSVKFNKPFELVLEDMLKAGVDSMPGGGAEIFDEEIRRKICNGKVGSSRWLEIHAYWHKLGKMSNATMLFGHIENKIHRIDHMLRIKKIQSPKNQVENKEGGFNAFIPLLYQKENNYLNVEKSPSAIEILKTIAISRILLNNIPHIKAYWATLGLNLALVAQEFGANDLDGTIEIESIQSAAGAKSRHGLEKEDLIFKIKDAGFVAVERDSLYNFIQKF
# Molecular target: T1, T25-HP1492 (Nfu)
# Assay: two-hybrid
row,Binder,growth OD595 in M63-maltose [OD595]
1,B1,0.21
2,B2,0.06
3,B3,0.09
4,B4,0.17

# Molecular target: T2, T25-HP0221 (NifU)
# Assay: two-hybrid
row,Binder,growth OD595 in M63-maltose [OD595]
1,B5,0.13
2,B6,0.11
3,B7,0.07
4,B8,0.08
5,B9,0.09

# Molecular target: T3, HP0221-T25 (NifU)
# Assay: two-hybrid
row,Binder,growth OD595 in M63-maltose [OD595]
1,B5,0.26
2,B6,0.37
3,B7,0.06
4,B8,0.24
5,B9,0.33
